# Source: patent US20210063414A1, “METHODS FOR PREVENTING AND/OR TREATING BONE LOSS CONDITIONS BY MODULATING IRISIN” (Dana-Farber Cancer Institute, Inc., priority 2018, published 2021)
# What was measured:
# [1] = molecular target: T1, MLO-Y4 cell surface proteins (Mus musculus, UniProt G3X9C2); assay: Crosslinking/co-immunoprecipitation/mass spectrometry (TMT quantitative proteomics) to identify irisin receptors; format: binding; settings: co-precipitated protein Nccrp1 (FBX50_MOUSE)
# T1 construct: endogenous in cells; host or cells: MLO-Y4
# T1 sequence (G3X9C2 1-266): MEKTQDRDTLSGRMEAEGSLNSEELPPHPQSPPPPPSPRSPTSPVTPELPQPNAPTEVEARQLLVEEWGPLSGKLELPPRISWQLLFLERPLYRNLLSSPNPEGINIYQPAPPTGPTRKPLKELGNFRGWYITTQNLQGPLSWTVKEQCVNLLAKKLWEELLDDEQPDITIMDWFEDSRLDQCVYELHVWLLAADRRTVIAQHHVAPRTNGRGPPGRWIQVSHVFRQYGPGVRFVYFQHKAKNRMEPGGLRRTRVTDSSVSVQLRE
# Summary of the method: (§1)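 Mouse MLO-Y4 cells were switched to serum-free FreeStyle medium for 4 h, chilled, then exposed to 10 nM His-tagged irisin (or adipsin as control) for 20 min. Cells were crosslinked with 1.5 mM DTSSP (30 min, ice), and bound proteins were pulled down on Ni-NTA and eluted with 250 mM imidazole. Eluates were separated by SDS-PAGE, trypsin-digested in gel, TMT 6-plex labelled and quantified by MS3-based LC-MS/MS on an Orbitrap Fusion Lumos.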
# [2] = molecular target: T2, MLO-Y4 cell surface proteins (Mus musculus, UniProt Q08189); assay: as above; format: binding; settings: co-precipitated protein Tgm3 (TGM3_MOUSE)
# T2 construct: endogenous in cells; host or cells: MLO-Y4
# T2 sequence (Q08189 1-693): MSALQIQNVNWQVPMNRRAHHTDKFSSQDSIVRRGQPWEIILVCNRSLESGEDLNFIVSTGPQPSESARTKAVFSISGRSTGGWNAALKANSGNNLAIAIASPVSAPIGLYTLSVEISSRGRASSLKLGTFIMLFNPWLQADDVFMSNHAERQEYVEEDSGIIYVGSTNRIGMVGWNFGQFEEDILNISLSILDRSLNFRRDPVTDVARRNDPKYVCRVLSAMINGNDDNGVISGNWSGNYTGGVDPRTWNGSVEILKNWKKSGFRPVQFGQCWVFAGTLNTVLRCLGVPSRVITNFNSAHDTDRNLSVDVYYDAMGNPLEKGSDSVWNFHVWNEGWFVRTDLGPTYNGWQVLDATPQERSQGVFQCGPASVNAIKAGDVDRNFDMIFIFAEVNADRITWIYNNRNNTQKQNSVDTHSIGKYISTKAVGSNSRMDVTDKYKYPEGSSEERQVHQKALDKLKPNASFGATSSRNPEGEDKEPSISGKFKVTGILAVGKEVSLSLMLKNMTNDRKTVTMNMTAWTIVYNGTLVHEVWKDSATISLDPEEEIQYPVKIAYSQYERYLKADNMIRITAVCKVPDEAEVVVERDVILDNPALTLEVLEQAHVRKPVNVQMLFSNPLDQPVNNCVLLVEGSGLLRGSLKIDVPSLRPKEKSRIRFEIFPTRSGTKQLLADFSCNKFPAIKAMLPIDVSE
# Summary of the method: as §1
substance,measurement,setting,value
adipsin,TMT signal-to-noise ratio,[1],113.564
same,TMT signal-to-noise ratio,[2],274.388
